Experimental data from patent US20240124605A1 (published 2024).
Positions count from the first letter of the chain named. Names may count otherwise. Values belong to the binder of their own block, whether it stands above or below them.

What was measured:
[1] = target: T1, CD123-Fc (Sino Biological) (human, UniProt P26951 19-305); experiment: BLI (Octet), CD123-Fc captured on AHC sensor, Adapter 500-0.69 nM in solution, global 1:1 fit, 25 C
T1 construct: Bought reagent; not shown: Fc of the bought fusion (detected with anti-human Fc, captured on AHC sensor)
T1 sequence: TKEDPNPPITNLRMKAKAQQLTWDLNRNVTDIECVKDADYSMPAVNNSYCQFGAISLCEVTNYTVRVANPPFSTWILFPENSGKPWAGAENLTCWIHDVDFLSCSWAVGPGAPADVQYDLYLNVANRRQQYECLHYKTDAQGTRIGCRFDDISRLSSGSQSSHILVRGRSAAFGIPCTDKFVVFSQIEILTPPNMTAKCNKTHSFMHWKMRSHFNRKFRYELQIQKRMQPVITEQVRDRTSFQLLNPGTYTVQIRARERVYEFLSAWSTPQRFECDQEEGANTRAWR
Protocol: To assess the kinetics of CD123 binding, Adapter proteins comprising the D domains were analyzed using Bio-Layer Interferometry (BLI). Adapter proteins comprising a CD123-binding D domain and a P26(Q26-V229) AFP polypeptide (SEQ ID NO: 39) were generated through transient transfection of HEK-293 cells, followed by Ni-Sepharose Excel (Cytiva) and SEC chromatography. BLI experiments were performed using an Octet RED386 (Sartorius). All experiments were performed at 25° C. in kinetic buffer (PBS, 0.1% BSA, 0.02% tween 20) under constant 1000 rpm agitation. CD123-Fc (20 nM) was captured on an AHC sensor (Sartorius) for 250 seconds to a loading density of ˜0.8 nm. […] The surface was regenerated by 3 rounds of 10 seconds of 10 mM Glycine pH 1.5, followed by kinetic buffer. The data was analyzed using a global fit with a 1:1 interaction model from Sartorius Octet Analysis studio.

[2] = target: T2, CD123 expressed on the surface of cells (OCI-AML2, MOLM13, NALM6-CD123+) (human, UniProt P26951 19-378); experiment: flow cytometry
T2 chain: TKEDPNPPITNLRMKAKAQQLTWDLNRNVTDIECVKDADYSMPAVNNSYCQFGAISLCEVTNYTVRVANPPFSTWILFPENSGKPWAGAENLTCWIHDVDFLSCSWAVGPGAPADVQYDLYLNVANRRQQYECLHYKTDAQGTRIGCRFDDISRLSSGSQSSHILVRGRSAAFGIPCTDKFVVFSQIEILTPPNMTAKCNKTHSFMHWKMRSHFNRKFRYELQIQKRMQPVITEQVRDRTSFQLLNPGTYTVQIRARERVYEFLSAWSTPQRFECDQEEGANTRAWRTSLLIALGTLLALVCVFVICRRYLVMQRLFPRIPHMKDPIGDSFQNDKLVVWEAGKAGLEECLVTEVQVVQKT

[3] = target: T1, CD123-Fc (Sino Biological); experiment: method not stated in the sentence (BLI of Adapters follows)
[4] = target: T1, CD123-Fc (Sino Biological); experiment: ELISA of MBP fusions for binding to CD123 (FIG. 3)
Protocol: (§1) Parent and mutated variant D domains were expressed as MBP fusions in E. coli (T7 Express, New England Biolabs) by either IPTG (isopropylthio-(3-galactoside) induction for 4 hours at 37° C. in Luria broth containing antibiotics and 0.2% glucose or through auto-induction for 16 hours at 30° C. using MagicMedia (Life Technologies). Post induction, cells were pelleted, washed and resuspended in “leak-out buffer” comprising 200 mM Tris pH 7.5 and 20 mM EDTA. After incubation at 30° C. for 16 hours, supernatant containing MBP fusion proteins were assayed by ELISA for both target binding and expression. Supernatants were added to 96-well Immulon 4HBX microtiter plates coated with anti-MBP polyclonal antibody (Abcam) at 0.0032 ug/ml. Followed by washing, bound MBP fusion proteins were detected either with CD123-Fc (Sino Biological)+anti-human Fc HRP (Abcam) to assess CD123 binding, or with anti-MBP-HRP (New England Biolabs) to assess MBP fusion protein expression.

[5] = target: T1, CD123-Fc (Sino Biological); experiment: ELISA: MBP fusion captured on anti-MBP antibody, detected with CD123-Fc + anti-human Fc HRP
Protocol: as §1

[6] = target: T1, CD123-Fc (Sino Biological); experiment: ELISA of MBP fusions normalized for protein concentration, serial dilution
Protocol: as §1

B1: Adapter protein comprising the 6T1D D domain and a P26(Q26-V229) AFP polypeptide (designed binder)
chain: MGSWDEFGRRLYAIEWQLYALGGTEAELAAFEKEIAAFESELQAYKGKGNPEVEKLREIAAVIRENLQAYRHNQESQALAKRSCGLFQKLGEYYLQNAFLVAYTKKAPQLTSSELMAITRKMAATAATCCQLSEDKLLACGEGAADIIIGHLCIRHEMTPVNPGVGQCCTSSYANRRPCFSSLVVDETYVPPAFSDDKFIFHKDLCQAQGVALQTMKQEFLINLVKQKPQITEEQLEAVIADFSGLLEKCCQGQEQEVCFAEEGQKLISKTRAALGV
notes: also called parental D domain (6T1D); not shown: His tag (purified on Ni-Sepharose)
- Kd [1]: 7.6 nM
- koff [1]: 0.00105 s⁻¹
- kon [1]: 139000 M⁻¹ s⁻¹
- EC50 [2]: 2.61 µg/mL

B2: Adapter protein comprising the 3F4N D domain and a P26(Q26-V229) AFP polypeptide (designed binder)
chain: B1 chain with N50S
notes: also called 6T1D(N50S); not shown: His tag (purified on Ni-Sepharose)
- Kd [1]: 1.3 nM
- koff [1]: 0.000275 s⁻¹
- kon [1]: 213000 M⁻¹ s⁻¹
- EC50 [2]: 1.83 µg/mL

B3: Adapter protein comprising the 4I0K D domain and a P26(Q26-V229) AFP polypeptide (designed binder)
chain: B1 chain with W16S
notes: also called 6T1D(W16S); not shown: His tag (purified on Ni-Sepharose)
- Kd [1]: 14 nM
- koff [1]: 0.00252 s⁻¹
- kon [1]: 177000 M⁻¹ s⁻¹
- EC50 [2]: 4.26 µg/mL

B6: Adapter protein comprising the 6K4C D domain and a P26(Q26-V229) AFP polypeptide (designed binder)
chain: B1 chain with D5A
notes: also called 6T1D(D5A); not shown: His tag (purified on Ni-Sepharose)
- Kd [1]: 18 nM
- koff [1]: 0.00353 s⁻¹
- kon [1]: 197000 M⁻¹ s⁻¹

B7: Adapter protein comprising the 4R8U D domain and a P26(Q26-V229) AFP polypeptide (designed binder)
chain: B1 chain with K48E, N50S
notes: also called 6T1D(K48E, N50S); not shown: His tag (purified on Ni-Sepharose)
- Kd [1]: 1.2 nM
- koff [1]: 0.000304 s⁻¹
- kon [1]: 254000 M⁻¹ s⁻¹
- EC50 [2]: 1.9 µg/mL

B8: Adapter protein comprising the 5B1Q D domain and a P26(Q26-V229) AFP polypeptide (designed binder)
chain: B1 chain with G8S, L21Q, K48E, N50S, I59L
notes: also called 6T1D(G8S, L21Q, K48E, N50S, I59L); not shown: His tag (purified on Ni-Sepharose)
- Kd [1]: 0.73 nM
- koff [1]: 0.000136 s⁻¹
- kon [1]: 187000 M⁻¹ s⁻¹
- EC50 [2]: 3.22 µg/mL
- fold enhancement of affinity over that of 6T1D [3]: ~10 fold

B9: Adapter protein comprising the 1F9I D domain and a P26(Q26-V229) AFP polypeptide (designed binder)
chain: B1 chain with L21Q, I59L
notes: also called 6T1D(L21Q, I59L); not shown: His tag (purified on Ni-Sepharose)
- Kd [1]: 7.6 nM
- koff [1]: 0.000646 s⁻¹
- kon [1]: 85200 M⁻¹ s⁻¹

B10: Adapter protein comprising the 0C8S D domain and a P26(Q26-V229) AFP polypeptide (designed binder)
chain: B1 chain with G8S, K48E, N50S, I59L
notes: also called 0085; 6T1D(G8S, K48E, N50S, I59L); not shown: His tag (purified on Ni-Sepharose)
- Kd [1]: 1 nM
- koff [1]: 0.000151 s⁻¹
- kon [1]: 146000 M⁻¹ s⁻¹
- EC50 [2]: 2.44 µg/mL

B11: 5S5W D domain as MBP fusion (designed binder, not shown: large carriers)
chain: MGSWSEFNMRLDAIYERLTALGGSEAELAAFEKEIAAFESELQAYKGKGNPEVEWLRHSAARIRLELQAYRHN
- binding result [4]: binds

Results, then the binder that gave them:

- Kd [1]: 5.2 nM
- koff [1]: 0.000924 s⁻¹
- kon [1]: 177000 M⁻¹ s⁻¹
B4: Adapter protein comprising the 8W9C D domain and a P26(Q26-V229) AFP polypeptide (designed binder)
chain: B1 chain with Q17R, T24S, E65S
notes: also called wild type; not shown: His tag (purified on Ni-Sepharose)

- Kd [1]: 28 nM
- koff [1]: 0.00665 s⁻¹
- kon [1]: 235000 M⁻¹ s⁻¹
- EC50 [2]: 4.62 µg/mL
B5: Adapter protein comprising the 8O3S D domain and a P26(Q26-V229) AFP polypeptide (designed binder)
chain: B1 chain with W16T
notes: also called 6T1D(W16T); not shown: His tag (purified on Ni-Sepharose)

- binding result [5]: binds
B12: 5B7L D domain as MBP fusion (designed binder, not shown: large carriers)
chain: B11 chain with S5I, T19V, H58K, S59V, R62N

- binding result [6]: binds
B13: 1J1K D domain as MBP fusion (designed binder, not shown: large carriers; small tags and cut ends)
chain: MGSWDEFSRRLYAIEWRLYALGGSEAELAAFEKEIAAFESELQAYKGKGNPEVEKLREIAAVIRSNLQAYRHN
notes: also called 8W9C (G8S)

- binding result [6]: binds
B14: 6Z5E D domain as MBP fusion (designed binder, not shown: large carriers; small tags and cut ends)
chain: B13 chain with S8G, N50S
notes: also called 8W9C (N50S)

- binding result [6]: binds
B15: 4H2H D domain as MBP fusion (designed binder, not shown: large carriers; small tags and cut ends)
chain: B13 chain with S8G, K48I, K55N
notes: also called 8W9C (K48I, K55N)
